These results are taken from the domain aggregation screens of Martell et al. (2025).
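Note: 20 min heating vs room temperature control held 20 min.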

The data set in a line: soluble fraction after stress (log2 fold change); higher = more stays soluble; pooled small domains, quantitative proteomics. Particulars: stress: 75 degC.
Turning to “HMATTMSADWRPSEDAVGILVNAEINARFIEDAIPEFVLYWRERGAVHGAWNSKFIEHIRRQWAKFSAS”, the “soluble fraction (log2)” value was -2.84. On to “HMATTPEETILEYINKNNRISKQEIADLMGITRDGVSYHIKKLRKNGLLEWIGSPSNGHWEIIE”, for which the “soluble fraction (log2)” value was 0.38.

Turning to “HMATVHPIRIQGGMTTQQGGKTVWLWVSDEGRLMTEDEIAGESGGTVSSRMVRGVRVLTGTGVIYG”, the “soluble fraction (log2)” value is -1.96.

Consider “HMATVIDVATTLGRPITDPDEQRQVLNWIGKTERIISARLGDLAALDRQILADVISEVVARRARN”, for which the “soluble fraction (log2)” value was -0.495.

On to “HMATVNIGNLTFTHKGDYASGTTYAKNDVVYYSTNGNAYIAKQATQGNAPTSTAHWDVFAAGSGG”, for which the “soluble fraction (log2)” value was determined as 0.245. With “HMAVDAASSTIGKNVEVSVANEKGDYENFNGKVKSASIKDGVVYLELELKDTGEIKEVPYSSLTKIT”, the “soluble fraction (log2)” value was 0.0437.

On to “HMAVDPSVLTRRERQALAWIARGLSNKEVARGLNLAESTVKVHVQSILRKLNLTSRVQAAVYAIEHGIDK”, for which the “soluble fraction (log2)” value is -3.08. On to “HMAVFRVGDKVKSMEGMIGEVRGINGRLIQVATPYGLRDYYPHQITKVENPLAAAPAPLNEEA”, for which the “soluble fraction (log2)” value was found to be 0.767. Consider “HMAVGVFQKEDGYWGYRFSIIVDGKTIARRKFTDENGSKLRTKSEAVKARAAAMVAARMERVS”, for which the “soluble fraction (log2)” value was -3.46. The result for “HMAVIILDEPTLGLDPAVRISLWQAIQSARDSTMSAFLITTHYIKEVADYLSAVKILDHGREVASGNPSAL” reads -0.313. For the sequence “HMAVKLELYRVFKEVAETGNISAAAKNLYISQSAVSQSIKQLETALQARLFARSPRGVTLTGEGQMLYQYV”, the “soluble fraction (log2)” value was -1.5.

Take “HMAVKNAQIDVQQFFYSKSGEVDFGRKIKAIQSHFTPERLQSFTAAVPPSQWVSQLQVMWDSL”: the “soluble fraction (log2)” value is -2.12.

With “HMAVLGIQPVFHRSTGQTVYKSSVNTAKGRVYLGLFPTLTEALEIKLKYMQEHGHTKGITNLTNKLKEL”, the “soluble fraction (log2)” value is -1.05. As to “HMAVPFTIDVSQNGRYFIEEDNQVVEVSIGFLEDRFLRIIKSNPDIEVIIRGDAKASYESIAELLAVLQ”, the “soluble fraction (log2)” value was -0.904. Consider “HMAVQPMDQVKAWLAEDNPADIKLLVPVLQKLDLLDYEQVRGEVADRAGVRKSLLDEAVKGN”, for which the “soluble fraction (log2)” value came out at 0.0888. The result for “HMAVRTELLALPAGWHGDASRLSTALAALQGVREAVVIASEGVAYLKVHGHDWDRDGARELLQN” reads -1.12.

On to “HMAVSGRGSIIGGVATVLDDFADSGKVWLEGEAWQARSSVPLKQDQEVVVRAMDGLVLVVEPVA”, for which the “soluble fraction (log2)” value is -0.442. On to “HMAVSNWQKLVSSIQTQLKILALYHGPEDGIYGPNTRSAIMLYEENIGLPVTGEPSRELLAHMLDQTD”, for which the “soluble fraction (log2)” value is -1.64. Turning to “HMAVTNLTAKQISDTRWRVTWDSTLASPTYYVYRDGLLMMQTRQELYEFDAARGEQVQIDVLDDMAAAPAE”, the “soluble fraction (log2)” value was -0.853.

In the case of “HMAWAVRAGEGVLIRAGQPGFSATTRGTALSNGAIGEGVRVRNLGSGKEIQAWVVDKGEVETR”, the “soluble fraction (log2)” value was determined as 0.00511. As for “HMAWIAVATKEDYSEYEWKELSPTTDWSTQTFDLGDLAGKTIYAVKMFFDHDTDVKDYKFNLGQLSITSN”, the “soluble fraction (log2)” value is -0.189. For “HMAYRLDVRNQTKGTYLVIQKKYWDKEKKQSRTKHHMSLGYVHDLQKLYSDPITHYKEVINQMNAEEKG”, the “soluble fraction (log2)” value was -2.09. For the sequence “HMAYSEEDRRRVREELLTTALKLMSTQGIQHTTVEQVYRSVGISRSFFYAFFPTKEDLIVEAL”, the “soluble fraction (log2)” value amounted to 0.0495. Consider “HMDAAANTLRILKALSESPMSADRLAELLMEEGSGRNPRTIRRYIRALREAGFGVEHREGRYVL”, for which the “soluble fraction (log2)” value is -0.387. With “HMDAAEVEATARAMLRRSALNLLAQREQTAFELKQKLSRRFPEQAALLDEVIERLQEQGLQDDTR”, the “soluble fraction (log2)” value is -0.0318.

Take “HMDAEEISILLEKAVLQLPEKQKMIFQLKYFEDLSYKDIQIITGGSIGGLKANYHHAVTKIEKLLS”: the “soluble fraction (log2)” value was determined as 0.123. As for “HMDAEETLGARLRRLRQARGLSLAGLAQAAGLSKPSIWAWENGTTAPRRTSLLALARALDVPEQQLTGV”, the “soluble fraction (log2)” value was -0.715.

Regarding “HMDAEKHIVTPEAGLRLDRALTDALPNLSRSRVKQLINEGLVTTENKTITAPSYRVKYGDSFEISIPPPT”, the “soluble fraction (log2)” value is -0.16. Regarding “HMDAIIVPSVLKMKPFEAEEKLSALGLRMKINDTVYIDNMKPGVIVEQSPTAEEDVKTDRVIYVIVNA”, the “soluble fraction (log2)” value was -0.327. With “HMDAKQLQSLKNNNEQLAGFIVRLTNFYEGLSPDIDAELSKLRSHLSGKVDYTLATVSINKINQLFMLEP”, the “soluble fraction (log2)” value was -2.97. For the sequence “HMDALIWYVSRGQQKFGPFNYFGVLKALQDKSVFEFDYVWKEGTENWVRLAEHELFSQEKVRELLA”, the “soluble fraction (log2)” value was -0.554. As to “HMDAMLGEALRLIRVYHDLKQKQAAERLEVSTSYLSEIERGLKTPTLDIIQRYATVFDMPVSSIMFFSENL”, the “soluble fraction (log2)” value was -3.1.

For the sequence “HMDAMLSEQLREKRGELLIEVDAIAGNALRWATLSAEQQDAWAVYRQALLDVPQQAGFPNDVVWPINPN”, the “soluble fraction (log2)” value is -0.42.

Take “HMDAPKPDIGMSTDQIRSSLGQPGSQTRLETGGGRIYELWIYLYPDGKELQIYFDNAKVVKMEALS”: the “soluble fraction (log2)” value was -1.19.

Turning to “HMDAPLIIAETRVDVPDATVSDAVMMLDLRNTNALLFKNSGSGVLNMVYRRGDGTIGWGEPQ”, the “soluble fraction (log2)” value is -0.011. With “HMDASKVKIEDLGLSTRTENALVAASIRTAGGLARKSEMDLLSTDGLGEKGITEIKKALSDLGLELK”, the “soluble fraction (log2)” value came out at 0.4. Consider “HMDAVSTMIENLRVKTGKSLADWVGLAKGSGADKHGAMVGWLKSEHGLTHGYANLIAHETFRSAA”, for which the “soluble fraction (log2)” value was -0.129. Consider “HMDAVTPVLSRIRDARFKRMVLPGDEIEISVTLIDTIGKFFNLSGQIRNKDKISLTVNFALALV”, for which the “soluble fraction (log2)” value was determined as 0.195.

For the sequence “HMDDADPYEILGVERDAEDAEIKRAYHDLIRENHPDRLMAEGLPQEMIDVANEKVAFINDAYDRIEKLRGM”, the “soluble fraction (log2)” value is -0.193.

As to “HMDDENKIEVMINEEKVQLTGKDKYVFVDIFNYIDMDLTRIHGNLVLKLNGENASHNSLLKSGDKIEARWE”, the “soluble fraction (log2)” value was -0.746. In the case of “HMDDERDRLVQQAMEGLSPALREILLLAYFQRMPYNQIAESLRIPLGTVKSRLHAAVAAFAKRWQELNRS”, the “soluble fraction (log2)” value is -0.77.

As for “HMDDFNLSPREKDVLGHLVKGNSYKMIADELQIGYDTVHSHIKKIYKKLHVNSMSEAVAKALKNKL”, the “soluble fraction (log2)” value stood at 0.332. The result for “HMDDGARQLVDQLNRLIANPAVSARIIHGYLILEGRVESEWEKTRTLLLAQVAGLPVIDLITVS” reads -2.35; that for “HMDDGLTRLTPRENEVLELMAQGRSNTAIAERLVLSYGAVEKNVSSIFTKLDLPLDAGDHRRVLAVLRRLN”, -0.668. As to “HMDDGNHTEYIVLEKAKFYDEAGEYEEGRDLVLSFDKYQDNWKLVYTLGVFNKKLNNLEEARKYYKQALE”, the “soluble fraction (log2)” value was -0.0263. Take “HMDDHKQHLIDFYHSRKRMPTYTEMMALFGYKSKNAVARLVEKMIDAGIVTKDKLGKLLPTTLFDSVPL”: the “soluble fraction (log2)” value is -0.00288. Regarding “HMDDHLRLSDNERISAMSALATHFTEGRLDTSEFDERTLAASQAKSRGDLRPLFDDLPGQLPAALSP”, the “soluble fraction (log2)” value was found to be 0.0298. The result for “HMDDKLKKLEEVFEMQEGTLTPDMRLDELEEWDSMTRLSLIVMMEDDYGKKVKRSEVMNYTTVQDIVDSME” reads -0.0532; that for “HMDDLSPEENKVIGAQVREELARRRLSRQHLADKAKISLSTLEKALTGTRPFTLASVVRIEEALQLQLRK”, -1.35; that for “HMDDPEISQEQRQQLFRTAKEHFGASGNDVLKEILADHGRDSTVKMPVSVFAEIMGDLLKRALD”, 0.612.

Take “HMDDPQAELLARAVRRVALAAAERTRRNEYGGVYLGLFRQFGISSYRRTPPARLHEALEWLERWRGDLM”: the “soluble fraction (log2)” value is -0.134. Regarding “HMDDTVILPIQINGKRRAEISVPKAMPASEVEKLALANEDVLRFLAGQPIKKLIVVPGRIINVV”, the “soluble fraction (log2)” value is 0.0584. For “HMDDVGERIRKIREEKNLSLDEISKMTGFDVEFLAKIENKERQPQLGTVIKLSKALDSAFGRL”, the “soluble fraction (log2)” value stood at 0.162. With “HMDDVGYLRKRLQQALAQLSDDLRNTYTLFQIGKQSIKQIAAETGASESLVKVRIHRAKQKLQELLADLQ” the figure was -1.47. For the sequence “HMDEDLQEALRKLNPIQANERKLLLKMLEQHRWNVSSVAKAFDVSRNTLYRRLHKLHIPLSNPSE”, the “soluble fraction (log2)” value is -1.33. Consider “HMDEEAIELTQEVMKLPPKQREVILLYYYHGLTGKEIAKALGISGAAVSKRLKQAKNQLHFALK”, for which the “soluble fraction (log2)” value is -0.282.

“HMDEEVLVVQEGGERLDVFVAANAEGITRSFVQNLIKKGDVTVDGAPRKANYRLRSGQVVRFSLPEP”: the “soluble fraction (log2)” value is -0.204. As to “HMDEFEEGVITYFNSEKGFGFIRESKTKQSVFVHSKQLSSPVQLNDKVKFIVNKGLKGLEATEVSVI”, the “soluble fraction (log2)” value is -0.818. Take “HMDEFQLTPREQEILGLLVKGYTYKRIASELNLSYATVNRHVSNVYVKLRVHSVNEAVALAVRKGL”: the “soluble fraction (log2)” value is -1.39. With “HMDEKLAHKLVSDFRQAAASLERFPFRNPVLRSEVFTVEKYRKLVFDKYHILLYQVKDQVVYVEYVIDGRQ” the figure was -0.94.

For “HMDEKVTIPSVSGLLLSEAKTKLVDAGLTVETVYDDESKEAKDTVLSQSPLQYGKVDKGTVVTLTVSSGKG”, the “soluble fraction (log2)” value stood at 0.332. As to “HMDELPKDILRSFGLPDKPWAMELLRNLRRDGFALDGETARAYAEMAAMKPPRTDARQWMTAADVAYRRG”, the “soluble fraction (log2)” value is -0.343. “HMDEMPVEFVKISIKAGHPWENRKIKDLASLPDLLLVLILRGEERIIPNGNTVVLAGDKIVLSALSPE”: the “soluble fraction (log2)” value was -2.74. Regarding “HMDENILKTRIEDLDLSVRTIKALTGASIRTVSGLARKKESDLLEISGLGDKGIQEIKRALGSLGITL”, the “soluble fraction (log2)” value was -0.498. As to “HMDENTEQESQTVVVPDVTGKSLSEAASILREAGLDYLAEQTGTVVTKQMPLPDAEVLINTTVLLYTDSE”, the “soluble fraction (log2)” value came out at 0.143. Regarding “HMDEPSITYGKVKVQTSLNVRQGPGTQYARIGSLGPNVRIQILGQEGQWYKIKYGNLQGYVHSDYVELEK”, the “soluble fraction (log2)” value was -0.026.

Take “HMDEQKNREIALIENIQREDLNPYEKALGIRNLMDKYGLTQEEVSKRIGKSRSAVSNTVRILNLAPDVL”: the “soluble fraction (log2)” value was 0.125.

With “HMDEQLAWLYRKINAFSEIDKALILLYLEDKKYDEIAETLGISSVNARVKMNRIKKRLKEMINDR”, the “soluble fraction (log2)” value is -3.14. Turning to “HMDEQVETLKNLISELPKEQLEVLVMRHYEDLSFKEISEKTGVSINTALGRMRYALINIRKLMKENN”, the “soluble fraction (log2)” value is -0.145. With “HMDESLIEEAKAMILQMKIEGSVRVRSNGLLEFRNPLFGSVYGRSVEELQEKLNKKVREQKSRI” the figure was -0.443.
